Legend:
Conditions in all cases: La3+ as metal cofactor; PQQ enzyme; artificial electron acceptor PMS/DCPIP
purified protein = substrate: C=O; assay: purified protein
[1] = substrate: CCO; assay: PMS-mediated DCPIP reduction, Michaelis-Menten fit; assay type: biochemical, Methylorubrum extorquens
[2] = substrate: CO; assay: PMS-mediated DCPIP reduction, Michaelis-Menten fit; assay type: biochemical, Methylorubrum extorquens

B1: XoxF1 MDH (XoxF1-La) (Methylorubrum extorquens AM1) (protein)
chain: NESVLKGVANPAEQVLQTVDYANTRYSKLDQINASNVKNLQVAWTFSTGVLRGHEGSPLVVGNIMYVHTPFPNIVYALDLDQGAKIVWKYEPKQDPSVIPVMCCDTVNRGLAYADGAILLHQADTTLVSLDAKSGKVNWSVKNGDPSKGETNTATVLPVKDKVIVGISGGEFGVQCHVTAYDLKSGKKVWRGYSIGPDDQLIVDPEKTTSLGKPIGKDSSLKTWEGDQWKTGGGCTWGWFSYDPKLDLMYYGSGNPSTWNPKQRPGDNKWSMTIWARNPDTGMAKWVYQMTPHDEWDFDGINEMILTDQKFDGKDRPLLTHFDRNGFGYTLDRATGEVLVAEKFDPVVNWATKVDLDKGSKTYGRPLVVSKYSTEQNGEDVNSKGICPAALGTKDQQPAAFSPKTGLFYVPTNHVCMDYEPFRVTYTPGQPYVGATLSMYPAPGSHGGMGNFIAWDNLQGKIKWSNPEQFSAWGGALATAGDVVFYGTLEGFLKAVDSKTGKELYKFKTPSGIIGNVMTYEHKGKQHVAVLSGVGGWAGIGLAAGLTDPNAGLGAVGGYAALSSYTNLGGQLTVFSLPNN
Km (purified protein): 96 µM | Km [1]: 639 µM | Km [2]: 44 µM

— publication doi:10.1101/329011v1
